Data as given in article PMC3698177.

Molecular target: phosphorylated β-catenin (UniProt P35222)
Experiment: co-immunoprecipitation (IP-GFP), western blot densitometry
Conditions: Triton-X100 cell extracts containing 50 mM NaF; SW480 extract as source of β-catenin; parent: 1

Chain of UniProt P35222 (P35222 whole entry): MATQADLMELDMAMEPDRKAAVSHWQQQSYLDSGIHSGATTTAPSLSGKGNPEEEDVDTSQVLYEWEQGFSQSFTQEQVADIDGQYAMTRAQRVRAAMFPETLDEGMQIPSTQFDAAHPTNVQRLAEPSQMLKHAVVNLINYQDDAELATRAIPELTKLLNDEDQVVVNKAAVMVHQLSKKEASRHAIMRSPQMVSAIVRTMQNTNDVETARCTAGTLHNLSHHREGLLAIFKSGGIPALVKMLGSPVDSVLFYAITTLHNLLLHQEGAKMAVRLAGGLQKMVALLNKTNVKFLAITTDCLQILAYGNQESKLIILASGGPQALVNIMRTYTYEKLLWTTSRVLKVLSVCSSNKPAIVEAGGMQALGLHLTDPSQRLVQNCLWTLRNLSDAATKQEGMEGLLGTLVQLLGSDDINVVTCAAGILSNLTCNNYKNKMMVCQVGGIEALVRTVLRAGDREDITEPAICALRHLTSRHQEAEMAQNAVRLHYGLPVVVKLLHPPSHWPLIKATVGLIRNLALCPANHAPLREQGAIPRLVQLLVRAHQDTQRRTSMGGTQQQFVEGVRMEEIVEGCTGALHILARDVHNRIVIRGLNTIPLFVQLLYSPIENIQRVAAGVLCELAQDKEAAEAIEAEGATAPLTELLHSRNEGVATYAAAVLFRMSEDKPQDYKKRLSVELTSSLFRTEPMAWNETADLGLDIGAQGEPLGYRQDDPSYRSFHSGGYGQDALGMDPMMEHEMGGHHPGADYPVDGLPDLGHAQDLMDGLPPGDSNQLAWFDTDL

other: Ratio Phospho/total: 0.9
Substance: yAPC1289 (from UniProt P25054) 20R1µ
